# Numbering of substitutions follows the chain as printed.
# T1: FSP1-TST, wild type, from cells under NMT inhibition (UniProt Q9BRQ8 1-373)
# T1 construct: FSP1 (ferroptosis suppressor protein 1); same construct as m3; not shown: Twin-Strep-tag, C-terminal, kept
# T1 sequence (looked up): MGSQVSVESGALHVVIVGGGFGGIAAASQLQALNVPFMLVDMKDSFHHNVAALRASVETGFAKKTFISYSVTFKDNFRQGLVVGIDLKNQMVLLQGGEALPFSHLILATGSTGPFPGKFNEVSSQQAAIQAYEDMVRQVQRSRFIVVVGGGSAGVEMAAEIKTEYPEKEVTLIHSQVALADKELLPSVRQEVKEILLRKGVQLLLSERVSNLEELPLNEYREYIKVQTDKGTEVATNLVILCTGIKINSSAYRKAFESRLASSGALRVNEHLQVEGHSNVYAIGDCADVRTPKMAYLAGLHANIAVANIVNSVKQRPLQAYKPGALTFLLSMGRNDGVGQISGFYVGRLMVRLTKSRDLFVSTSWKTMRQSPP
# T2: FSP1-TST, myristoylation-deficient G2A mutant (UniProt Q9BRQ8 1-373, G2A)
# T2 construct: FSP1 (ferroptosis suppressor protein 1) with G2A; also called FSP1 G2A mutant; source: HEK293, transfected, in lysate; not shown: Twin-Strep-tag, C-terminal, kept
# T2 sequence (looked up): T1 sequence (looked up) with G2A
# B1: TOMM40, mitochondrial protein that facilitates protein import into mitochondria (natural protein, human (endogenous in HEK293), UniProt O96008 1-361, looked up)
# chain: MGNVLAASSPPAGPPPPPAPALVGLPPPPPSPPGFTLPPLGGSLGAGTSTSRSSERTPGAATASASGAAEDGACGCLPNPGTFEECHRKCKELFPIQMEGVKLTVNKGLSNHFQVNHTVALSTIGESNYHFGVTYVGTKQLSPTEAFPVLVGDMDNSGSLNAQVIHQLGPGLRSKMAIQTQQSKFVNWQVDGEYRGSDFTAAVTLGNPDVLVGSGILVAHYLQSITPCLALGGELVYHRRPGEEGTVMSLAGKYTLNNWLATVTLGQAGMHATYYHKASDQLQVGVEFEASTRMQDTSVSFGYQLDLPKANLLFKGSVDSNWIVGATLEKKLPPLPLTLALGAFLNHRKNKFQCGFGLTIG
# modifications: myristoylated (the paper: 'is itself also myristoylated')
# notes: TOMM40, endogenous in HEK293 cells, detected with a TOMM40 antibody; source: endogenous, HEK293 lysate
# How the values were obtained:
# [1] = target: T1, FSP1-TST, wild type, from cells under …; experiment: co-IP; as a2, wild-type FSP1-TST with NMT inhibition of the cells; conditions: partners not purified
# [2] = target: T2, FSP1-TST, myristoylation-deficient G2A …; experiment: co-IP; TST-tagged protein (WT or G2A) transfected in HEK293 cells, captured on Strep-Tactin resin; blot with TRA2B or TOMM40 antibody, signal normalised to the bait's signal; conditions: partners not purified
binder,measurement,setting,value
B1,"co-immunoprecipitated TOMM40, percent of WT",[1],28 % of WT
same,"co-immunoprecipitated TOMM40, percent of WT FSP1",[2],22 % of WT FSP1
